Measurements from patent US20100333236A1.
Values joined by “and” are separate entries in the source; they are usually repeats but may differ in a detail not shown here. Identical values can stand only once. Like-named read-outs stand apart in the source and are kept apart here. One block for each molecule: values may come before it.

Tests used:
Assay in all cases: cell-based or functional assay
[1] = molecular target: serine-like chymotrypsin protease activities from Sesamia nonagrioides (Mediterranean corn borer) larval gut extracts (Sesamia nonagrioides)
[2] = molecular target: serine-like trypsin protease activities from Ostrinia nubilalis (European corn borer) larval gut extracts (Ostrinia nubilalis)
[3] = molecular target: serine-like elastase protease activities from Ostrinia nubilalis (European corn borer) larval gut extracts (Ostrinia nubilalis)
[4] = molecular target: serine-like trypsin protease activities from Spodoptera littoralis (cotton leafworm) larval gut extracts (Spodoptera littoralis)
[5] = molecular target: serine-like chymotrypsin protease activities from Spodoptera littoralis (cotton leafworm) larval gut extracts (Spodoptera littoralis)
[6] = molecular target: cysteine-like cathepsin-L protease activities from extracts of adults of Tetranychus urticae (spider mites) (Tetranychus urticae)
[7] = molecular target: cysteine-like cathepsin-L protease activities from Leptinotarsa decemlineata (Colorado potato beetle) gut extracts (Leptinotarsa decemlineata)
[8] = molecular target: cysteine-like cathepsin-B protease activities from Leptinotarsa decemlineata (Colorado potato beetle) gut extracts (Leptinotarsa decemlineata)
[9] = molecular target: cysteine-like cathepsin-L protease activities from extracts of adults of Tribolium castaneum (red flour beetle) (Tribolium castaneum)
[10] = molecular target: cysteine-like cathepsin-L protease activities from extracts of adults of Bemisia tabaci (sweetpotato whitefly) (Bemisia tabaci)
[11] = molecular target: cysteine-like cathepsin-L protease activities from extracts of adults of Acyrthosiphon pisum (pea aphid) (Acyrthosiphon pisum)
[12] = molecular target: cysteine-like cathepsin-B protease activities from extracts of adults of Acyrthosiphon pisum (pea aphid) (Acyrthosiphon pisum)
[13] = molecular target: serine-like trypsin protease activities from Sesamia nonagrioides (Mediterranean corn borer) larval gut extracts (Sesamia nonagrioides)
[14] = molecular target: serine-like trypsin protease activities from Ostrinia nubilalis (European corn borer) larval gut extracts (Ostrinia nubilalis); remark: listed apart in the source
[15] = molecular target: serine-like trypsin protease activities from Spodoptera littoralis (cotton leafworm) larval gut extracts (Spodoptera littoralis); remark: listed apart in the source
[16] = molecular target: serine-like chymotrypsin protease activities from Spodoptera littoralis (cotton leafworm) larval gut extracts (Spodoptera littoralis); remark: listed apart in the source
[17] = molecular target: cysteine-like cathepsin-L protease activities from extracts of adults of Tetranychus urticae (spider mites) (Tetranychus urticae); remark: listed apart in the source
[18] = molecular target: cysteine-like cathepsin-L protease activities from Leptinotarsa decemlineata (Colorado potato beetle) gut extracts (Leptinotarsa decemlineata); remark: listed apart in the source
[19] = molecular target: serine-like trypsin protease activities from Sesamia nonagrioides (Mediterranean corn borer) larval gut extracts (Sesamia nonagrioides); remark: listed apart in the source
[20] = molecular target: cysteine-like cathepsin-B protease activities from Leptinotarsa decemlineata (Colorado potato beetle) gut extracts (Leptinotarsa decemlineata); remark: listed apart in the source
[21] = molecular target: cysteine-like cathepsin-L protease activities from extracts of adults of Tribolium castaneum (red flour beetle) (Tribolium castaneum); remark: listed apart in the source
[22] = molecular target: cysteine-like cathepsin-L protease activities from extracts of adults of Bemisia tabaci (sweetpotato whitefly) (Bemisia tabaci); remark: listed apart in the source
[23] = molecular target: cysteine-like cathepsin-L protease activities from extracts of adults of Acyrthosiphon pisum (pea aphid) (Acyrthosiphon pisum); remark: listed apart in the source
[24] = molecular target: cysteine-like cathepsin-B protease activities from extracts of adults of Acyrthosiphon pisum (pea aphid) (Acyrthosiphon pisum); remark: listed apart in the source

% Inhibition, Chymotrypsin, 5 µM serpin [1]: 32%
% Inhibition, Chymotrypsin, 10 µM serpin [1]: 70%
% Inhibition, Trypsin, 2 µM serpin [2]: 51%
% Inhibition, Elastase, 2 µM serpin [3]: 21%
% Inhibition, Trypsin, 1.25 µM serpin [4]: 18%
% Inhibition, Trypsin, 5 µM serpin [4]: 32%
% Inhibition, Trypsin, 10 µM serpin [4]: 40%
% Inhibition, Chymotrypsin, 1.25 µM serpin [5]: 11%
% Inhibition, Chymotrypsin, 5 µM serpin [5]: 41%
% Inhibition, Chymotrypsin, 10 µM serpin [5]: 56%
% Inhibition, Cathepsin-L, 0.02 µM serpin [6]: 9%
% Inhibition, Cathepsin-L, 0.04 µM serpin [6]: 11%
% Inhibition, Cathepsin-L, 0.08 µM serpin [6]: 12%
% Inhibition, Cathepsin-L, 0.16 µM serpin [6]: 22%
% Inhibition, Cathepsin-L, 0.31 µM serpin [6]: 33%
% Inhibition, Cathepsin-L, 0.63 µM serpin [6]: 44%
% Inhibition, Cathepsin-L, 1.25 µM serpin [6]: 51%
% Inhibition, Cathepsin-L, 2.5 µM serpin [6]: 59%
% Inhibition, Cathepsin-L, 5 µM serpin [6]: 71%
% Inhibition, Cathepsin-L, 10 µM serpin [6]: 75%
% Inhibition, Cathepsin-L, 20 µM serpin [6]: 79%
IC50 of cathepsin-L activity inhibition (FIG. 7) [6]: < 1 µM
fold activity against AtSerpin1, cathepsin-L inhibition (FIG. 7) [6]: 2 times and 3 times
% Inhibition, Cathepsin-L, 1.25 µM serpin [7]: 18%
% Inhibition, Cathepsin-L, 5 µM serpin [7]: 44%
% Inhibition, Cathepsin-L, 10 µM serpin [7]: 66%
% Inhibition, Cathepsin-B, 1.25 µM serpin [8]: 62%
% Inhibition, Cathepsin-B, 5 µM serpin [8]: 77%
% Inhibition, Cathepsin-B, 10 µM serpin [8]: 70%
% Inhibition, Cathepsin-L, 0.08 µM serpin [9]: 12%
% Inhibition, Cathepsin-L, 0.16 µM serpin [9]: 32%
% Inhibition, Cathepsin-L, 0.31 µM serpin [9]: 57%
% Inhibition, Cathepsin-L, 0.63 µM serpin [9]: 63%
% Inhibition, Cathepsin-L, 1.25 µM serpin [9]: 68%
% Inhibition, Cathepsin-L, 2.5 µM serpin [9]: 68%
% Inhibition, Cathepsin-L, 5 µM serpin [9]: 72%
% Inhibition, Cathepsin-L, 10 µM serpin [9]: 70%
% Inhibition, Cathepsin-L, 20 µM serpin [9]: 76%
IC50 of cathepsin-L activity inhibition (FIG. 4) [9]: 0.2 to 0.3 µM
fold activity against AtSerpin1, cathepsin-L inhibition (FIG. 4) [9]: > 10 times
% Inhibition, Cathepsin-L, 0.16 µM serpin [10]: 3%
% Inhibition, Cathepsin-L, 0.31 µM serpin [10]: 10%
% Inhibition, Cathepsin-L, 0.63 µM serpin [10]: 15%
% Inhibition, Cathepsin-L, 1.25 µM serpin [10]: 27%
% Inhibition, Cathepsin-L, 2.5 µM serpin [10]: 38%
% Inhibition, Cathepsin-L, 5 µM serpin [10]: 48%
% Inhibition, Cathepsin-L, 10 µM serpin [10]: 60%
% Inhibition, Cathepsin-L, 20 µM serpin [10]: 70%
IC50 of cathepsin-L activity inhibition (FIG. 6) [10]: 5 µM
fold activity against AtSerpin1, cathepsin-L inhibition (FIG. 6) [10]: 5 times and 10 times
% Inhibition, Cathepsin-L, 1.25 µM serpin [11]: 24%
% Inhibition, Cathepsin-L, 5 µM serpin [11]: 34%
% Inhibition, Cathepsin-L, 10 µM serpin [11]: 45%
% Inhibition, Cathepsin-B, 1.25 µM serpin [12]: 24%
% Inhibition, Cathepsin-B, 5 µM serpin [12]: 31%
% Inhibition, Cathepsin-B, 10 µM serpin [12]: 36%
Molecule: AtSerpin1 mutant IKLA (SEQ ID NO:3) (from UniProt Q9S7T8 1-391)

% Inhibition, Trypsin, 5 µM serpin [4]: 64%
% Inhibition, Trypsin, 10 µM serpin [4]: 69%
% Inhibition, Cathepsin-B, 5 µM serpin [12]: 49%
% Inhibition, Cathepsin-B, 10 µM serpin [12]: 66%
Molecule: AtSerpin1 mutant IKLK (SEQ ID NO:7) (from UniProt Q9S7T8 1-391)

% Inhibition, Cathepsin-L, 1.25 µM serpin [6]: 11%
% Inhibition, Trypsin, 1.25 µM serpin [13]: 38%
% Inhibition, Cathepsin-L, 1.25 µM serpin [9]: 73%
% Inhibition, Cathepsin-L, 1.25 µM serpin [11]: 31%
% Inhibition, Cathepsin-B, 1.25 µM serpin [12]: 32%
Molecule: AtSerpin1 mutant IRPR (SEQ ID NO:5) (from UniProt Q9S7T8 1-391)

% Inhibition, Trypsin, 5 µM serpin [4]: 33%
% Inhibition, Trypsin, 10 µM serpin [4]: 34%
% Inhibition, Cathepsin-L, 1.25 µM serpin [6]: 22%
% Inhibition, Cathepsin-L, 1.25 µM serpin [9]: 38%
% Inhibition, Cathepsin-L, 1.25 µM serpin [11]: 16%
% Inhibition, Cathepsin-B, 1.25 µM serpin [12]: 27%
% Inhibition, Cathepsin-B, 5 µM serpin [12]: 14%
% Inhibition, Cathepsin-B, 10 µM serpin [12]: 23%
Molecule: AtSerpin1 mutant VRPR (SEQ ID NO:4) (from UniProt Q9S7T8 1-391)

% Inhibition, Cathepsin-L, 1.25 µM serpin [6]: 8%
% Inhibition, Cathepsin-B, 1.25 µM serpin [12]: 26%
Molecule: AtSerpin1 mutant WRHR (SEQ ID NO:6) (from UniProt Q9S7T8 1-391)

% Inhibition, Trypsin, 2 µM serpin [14]: 28%
% Inhibition, Trypsin, 1.25 µM serpin [15]: 52%
% Inhibition, Trypsin, 5 µM serpin [15]: 83%
% Inhibition, Trypsin, 10 µM serpin [15]: 90%
concentration for 50% inhibition of trypsin activity (fluorometric substrate, FIG. 1) [15]: 1 µM
% Inhibition, Chymotrypsin, 1.25 µM serpin [16]: 10%
% Inhibition, Chymotrypsin, 5 µM serpin [16]: 31%
% Inhibition, Chymotrypsin, 10 µM serpin [16]: 40%
concentration for 50% inhibition of chymotrypsin activity (FIG. 1) [16]: 10 to 20 µM
% Inhibition, Cathepsin-L, 0.16 µM serpin [17]: 10%
% Inhibition, Cathepsin-L, 0.31 µM serpin [17]: 13%
% Inhibition, Cathepsin-L, 0.63 µM serpin [17]: 17%
% Inhibition, Cathepsin-L, 1.25 µM serpin [17]: 32%
% Inhibition, Cathepsin-L, 2.5 µM serpin [17]: 48%
% Inhibition, Cathepsin-L, 5 µM serpin [17]: 58%
% Inhibition, Cathepsin-L, 10 µM serpin [17]: 67%
% Inhibition, Cathepsin-L, 20 µM serpin [17]: 73%
concentration for 50% inhibition of cathepsin-L activity (FIG. 7) [17]: 2 µM
% Inhibition, Cathepsin-L, 1.25 µM serpin [18]: 4%
% Inhibition, Cathepsin-L, 5 µM serpin [18]: 34%
% Inhibition, Cathepsin-L, 10 µM serpin [18]: 48%
concentration for 50% inhibition of cathepsin-L activity (fluorometric substrates, FIG. 3) [18]: 10 µM
% Inhibition, Trypsin, 1.25 µM serpin [19]: 90%
% Inhibition, Trypsin, 5 µM serpin [19]: 97%
% Inhibition, Trypsin, 10 µM serpin [19]: 98%
concentration for 50% inhibition of trypsin activity (FIG. 2) [19]: 0.1 µM
% Inhibition, Cathepsin-B, 1.25 µM serpin [20]: 40%
% Inhibition, Cathepsin-B, 5 µM serpin [20]: 47%
% Inhibition, Cathepsin-B, 10 µM serpin [20]: 46%
concentration for 50% inhibition of cathepsin-B activity (FIG. 3) [20]: > 10 µM
% Inhibition, Cathepsin-L, 2.5 µM serpin [21]: 16%
% Inhibition, Cathepsin-L, 5 µM serpin [21]: 68%
% Inhibition, Cathepsin-L, 10 µM serpin [21]: 73%
% Inhibition, Cathepsin-L, 20 µM serpin [21]: 76%
IC50 of cathepsin-L activity inhibition (FIG. 4) [21]: 4 µM
% Inhibition, Cathepsin-L, 2.5 µM serpin [22]: 7%
% Inhibition, Cathepsin-L, 5 µM serpin [22]: 20%
% Inhibition, Cathepsin-L, 10 µM serpin [22]: 34%
% Inhibition, Cathepsin-L, 20 µM serpin [22]: 43%
% inhibition of cathepsin-L activity at 20 µM serpin (FIG. 6) [22]: 45%
% Inhibition, Cathepsin-L, 1.25 µM serpin [23]: 42%
% Inhibition, Cathepsin-L, 5 µM serpin [23]: 42%
% Inhibition, Cathepsin-L, 10 µM serpin [23]: 39%
inhibition of cathepsin-L activity, plateau (FIG. 5) [23]: 40%
% Inhibition, Cathepsin-B, 1.25 µM serpin [24]: 50%
% Inhibition, Cathepsin-B, 5 µM serpin [24]: 55%
% Inhibition, Cathepsin-B, 10 µM serpin [24]: 55%
concentration for 50% inhibition of cathepsin-B activity (FIG. 5) [24]: 1 µM
B1: AtSerpin1 (wild-type Serpin1 from Arabidopsis thaliana, At1g47710), recombinant HIS6-tagged (protein, not shown: small tags and cut ends)
chain: MDVRESISLQNQVSMNLAKHVITTVSQNSNVIFSPASINVVLSIIAAGSAGATKDQILSFLKFSSTDQLNSFSSEIVSAVLADGSANGGPKLSVANGAWIDKSLSFKPSFKQLLEDSYKAASNQADFQSKAVEVIAEVNSWAEKETNGLITEVLPEGSADSMTKLIFANALYFKGTWNEKFDESLTQEGEFHLLDGNKVTAPFMTSKKKQYVSAYDGFKVLGLPYLQGQDKRQFSMYFYLPDANNGLSDLLDKIVSTPGFLDNHIPRRQVKVREFKIPKFKFSFGFDASNVLKGLGLTSPFSGEEGLTEMVESPEMGKNLCVSNIFHKACIEVNEEGTEAAAASAGVIKLRGLLMEEDEIDFVADHPFLLVVTENITGVVLFIGQVVDPLH
